Results: publication PMC5016258
pKd: −log10 of the molar value.

Assays:
[1] = biological target: Angiotensin-(1-7) Mas receptor fused to enhanced yellow fluorescent protein (UniProt P04201); experiment: radioligand binding
[2] = biological target: B2R-MasR heteromer on cells co-transfected with B2R-CFP and MasR-YFP (UniProt P30411); experiment: radioligand binding
Chain of UniProt P30411 (P30411 whole entry, chain 1 of 2): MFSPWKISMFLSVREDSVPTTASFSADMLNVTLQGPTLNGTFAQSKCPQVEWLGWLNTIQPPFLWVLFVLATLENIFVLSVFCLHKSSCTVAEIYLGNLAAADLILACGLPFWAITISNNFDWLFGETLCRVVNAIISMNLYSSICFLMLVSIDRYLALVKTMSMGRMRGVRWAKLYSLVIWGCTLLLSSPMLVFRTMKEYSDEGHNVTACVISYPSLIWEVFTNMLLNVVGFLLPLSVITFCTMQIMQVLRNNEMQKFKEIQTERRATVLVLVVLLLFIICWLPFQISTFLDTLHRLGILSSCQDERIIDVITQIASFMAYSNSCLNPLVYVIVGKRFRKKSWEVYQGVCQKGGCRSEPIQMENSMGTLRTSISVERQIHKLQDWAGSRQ
Chain of UniProt P30411 (P04201 whole entry, chain 2 of 2, further chain): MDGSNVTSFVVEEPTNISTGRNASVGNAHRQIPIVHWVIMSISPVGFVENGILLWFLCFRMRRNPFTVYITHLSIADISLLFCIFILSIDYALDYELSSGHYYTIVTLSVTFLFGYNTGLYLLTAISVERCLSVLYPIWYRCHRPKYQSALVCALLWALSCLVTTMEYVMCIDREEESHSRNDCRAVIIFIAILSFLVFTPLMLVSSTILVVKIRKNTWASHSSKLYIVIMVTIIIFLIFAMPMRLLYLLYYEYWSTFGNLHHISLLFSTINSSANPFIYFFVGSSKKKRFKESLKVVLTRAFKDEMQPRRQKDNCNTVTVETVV

Chain of UniProt P04201 (P04201 whole entry, the tested form may be a part): as the sequence (P04201 whole entry, chain 2 of 2, further chain) above

Angiotensin-(1-7) (peptide) was tested, and the pKd [1] was 8.94 and the pKd [2] was 9.86.
